What was measured:
[1] = target: DNA topoisomerase I (TOP1), full-length recombinant (UniProt P11387)
[2] = target: DNA topoisomerase IIα (TOP2A), recombinant (UniProt P11388)
UniProt P11388, sequence (P11388 whole entry): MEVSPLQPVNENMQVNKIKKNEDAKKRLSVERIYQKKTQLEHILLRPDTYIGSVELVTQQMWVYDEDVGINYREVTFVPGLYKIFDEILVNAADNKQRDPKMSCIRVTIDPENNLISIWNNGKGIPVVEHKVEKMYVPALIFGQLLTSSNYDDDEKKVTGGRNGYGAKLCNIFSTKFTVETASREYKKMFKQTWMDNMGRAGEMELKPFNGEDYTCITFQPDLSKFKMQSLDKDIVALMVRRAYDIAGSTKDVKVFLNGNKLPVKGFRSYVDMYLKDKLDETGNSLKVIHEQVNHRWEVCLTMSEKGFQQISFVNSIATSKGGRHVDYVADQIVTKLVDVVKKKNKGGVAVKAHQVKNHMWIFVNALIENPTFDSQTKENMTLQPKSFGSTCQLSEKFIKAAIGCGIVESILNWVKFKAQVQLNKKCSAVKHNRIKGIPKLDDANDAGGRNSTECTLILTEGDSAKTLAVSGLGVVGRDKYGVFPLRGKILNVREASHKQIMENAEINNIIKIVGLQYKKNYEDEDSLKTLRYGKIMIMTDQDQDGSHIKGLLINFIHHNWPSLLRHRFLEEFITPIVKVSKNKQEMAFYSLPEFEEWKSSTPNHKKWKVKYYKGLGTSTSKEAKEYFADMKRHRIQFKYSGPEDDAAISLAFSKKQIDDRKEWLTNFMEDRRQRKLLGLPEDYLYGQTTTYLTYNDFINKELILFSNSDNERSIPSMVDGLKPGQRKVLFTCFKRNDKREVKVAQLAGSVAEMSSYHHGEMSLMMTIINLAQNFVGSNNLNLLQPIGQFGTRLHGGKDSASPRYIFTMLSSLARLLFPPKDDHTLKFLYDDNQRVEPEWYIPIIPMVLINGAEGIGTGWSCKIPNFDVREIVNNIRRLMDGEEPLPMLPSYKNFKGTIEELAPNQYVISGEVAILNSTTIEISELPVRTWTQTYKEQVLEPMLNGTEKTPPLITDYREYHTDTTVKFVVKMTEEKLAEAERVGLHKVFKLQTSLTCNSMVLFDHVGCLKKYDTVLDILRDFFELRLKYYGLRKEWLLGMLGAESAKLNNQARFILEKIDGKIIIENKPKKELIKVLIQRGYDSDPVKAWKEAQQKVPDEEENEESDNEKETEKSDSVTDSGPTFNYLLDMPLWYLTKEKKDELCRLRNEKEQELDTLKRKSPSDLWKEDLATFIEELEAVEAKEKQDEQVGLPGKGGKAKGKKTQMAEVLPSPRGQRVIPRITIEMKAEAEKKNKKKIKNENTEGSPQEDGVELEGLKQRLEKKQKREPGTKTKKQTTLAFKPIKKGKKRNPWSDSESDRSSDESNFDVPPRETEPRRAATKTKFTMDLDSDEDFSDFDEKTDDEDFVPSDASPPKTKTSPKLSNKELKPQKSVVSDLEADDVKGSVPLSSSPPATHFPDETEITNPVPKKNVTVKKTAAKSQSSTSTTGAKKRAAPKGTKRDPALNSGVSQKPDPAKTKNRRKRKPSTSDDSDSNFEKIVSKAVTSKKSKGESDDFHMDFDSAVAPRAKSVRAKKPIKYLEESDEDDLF

UniProt P11387, sequence (P11387 whole entry): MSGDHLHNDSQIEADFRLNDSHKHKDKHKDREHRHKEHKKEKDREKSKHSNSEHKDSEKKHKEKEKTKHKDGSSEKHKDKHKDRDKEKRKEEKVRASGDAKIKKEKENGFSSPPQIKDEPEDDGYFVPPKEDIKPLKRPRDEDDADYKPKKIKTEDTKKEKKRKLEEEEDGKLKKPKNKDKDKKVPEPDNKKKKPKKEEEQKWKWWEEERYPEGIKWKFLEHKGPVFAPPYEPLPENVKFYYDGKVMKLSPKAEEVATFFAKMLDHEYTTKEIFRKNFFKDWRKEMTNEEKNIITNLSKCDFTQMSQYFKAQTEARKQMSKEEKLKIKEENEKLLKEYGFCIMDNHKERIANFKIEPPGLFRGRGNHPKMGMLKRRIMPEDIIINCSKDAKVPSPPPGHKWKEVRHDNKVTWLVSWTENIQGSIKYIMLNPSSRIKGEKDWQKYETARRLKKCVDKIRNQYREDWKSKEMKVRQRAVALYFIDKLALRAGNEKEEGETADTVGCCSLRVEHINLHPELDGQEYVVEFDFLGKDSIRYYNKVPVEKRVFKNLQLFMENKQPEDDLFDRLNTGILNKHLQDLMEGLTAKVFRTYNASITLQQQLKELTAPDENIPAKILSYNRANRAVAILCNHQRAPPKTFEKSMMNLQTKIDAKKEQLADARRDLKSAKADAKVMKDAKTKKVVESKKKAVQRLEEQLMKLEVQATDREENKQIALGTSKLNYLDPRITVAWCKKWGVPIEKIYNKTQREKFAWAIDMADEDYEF

Row | Substance | stimulation of BLM unwinding of RNA:DNA substrate by a two-fold molar excess of TOP1 (specific activity with against without TOP1) [1] [fold] | stimulation of BLM unwinding of dsDNA substrate by 7 nM TOP2A (fold change relative to minus TOP2A) [2] [fold]
1 | BLM wild-type (WT), recombinant (from UniProt P54132 1-1417) (enzyme) | 1.5 | 
2 | BLM-Δ1332–1349, recombinant (from UniProt P54132 1-1417) (enzyme) |  | 3
